{
  "source": "paper doi:10.1101/2024.06.25.600556",
  "about": "(bioRxiv, 2024)",
  "proteins": {"B1": {"name": "Streptococcus pneumoniae pyruvate kinase (enzyme)", "chain": "MNKRVKIVATLGPAVEIRGGKKFGEDGYWGEKLDVEASAKNIAKLIEAGANTFRFNFSHGDHQEQGERMATVKLAEKIAGKKVGFLLDTKGPEIRTELFEGEAKEYSYKTGEKIRVATKQGIKSTREVIALNVAGALDIYDDVEVGRQVLVDDGKLGLRVVAKDDATREFEVEVENDGIIAKQKGVNIPNTKIPFPALAERDNDDIRFGLEQGINFIAISFVRTAKDVNEVRAICEETGNGHVQLFAKIENQQGIDNLDEIIEAADGIMIARGDMGIEVPFEMVPVYQKMIIKKVNAAGKVVITATNMLETMTEKPRATRSEVSDVFNAVIDGTDATMLSGESANGKYPLESVTTMATIDKNAQALLNEYGRLDSDSFERNSKTEVMASAVKDATSSMDIKLVVTLTKTGHTARLISKYRPNADILALTFDELTERGLMLNWGVIPMLTDAPSSTDDMFEIAERKAVEAGLVESGDDIVIVAGVPVGEAVRTNTMRIRTVR"}},
  "biological_target": "the molecule itself",
  "assay": "crystal structure",
  "data": [
    {"protein": "B1", "values": [
      {"measurement": "stoichiometry N", "result": 4}
    ]}
  ]
}
